The target of assay [1] is T1, recombinant human CD20 (human, UniProt P11836 1-297).
T1 chain: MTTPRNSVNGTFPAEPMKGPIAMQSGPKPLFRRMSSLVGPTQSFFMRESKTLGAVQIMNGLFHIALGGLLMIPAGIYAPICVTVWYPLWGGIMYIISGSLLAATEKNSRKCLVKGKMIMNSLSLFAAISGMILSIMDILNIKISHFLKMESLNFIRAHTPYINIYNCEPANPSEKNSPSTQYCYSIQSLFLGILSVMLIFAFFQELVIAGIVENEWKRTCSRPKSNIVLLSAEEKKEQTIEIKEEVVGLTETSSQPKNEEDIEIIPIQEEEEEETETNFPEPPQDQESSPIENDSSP
In words: SPR. (Surface plasmon resonance follows binding to a sensor surface in real time, without labels.)

For assay [2], the target named is T1, recombinant human CD20. Kind of assay: SPR.
Assay [3] concerns the target T2, IL-12 receptor beta 1-biotin (IL-12Rβ1-Biotin; Acrobiosystems) (human, UniProt P42701 24-545, biotin (site not stated)). In words: ELISA.
In assay [4] the target is T1, recombinant human CD20. Kind of assay: SPR.
Assay [5] has as its target T2, IL-12 receptor beta 1-biotin …. Kind of assay: ELISA; control, flat curve. A general note: In an ELISA, binding on a coated surface is turned into a signal by an enzyme label.

The values below come from patent US20230295327A1 (published 2023).

Like-named read-outs stand apart in the source and are kept apart here.

B1: T2.09 (anti-hu CD20/hu IL-12 mut2, hu IgG1 (2 + 1, LC scFv)) (bispecific antibody)
heavy: not shown
light: QIVLSQSPAILSASPGEKVTMTCRASSSVSYIHWFQQKPGSSPKPWIYATSNLASGVPVRFSGSGSGTSYSLTISRVEAEDAATYYCQQWTSNPPTFGGGTKLEIKRTVAAPSVFIFPPSDEQLKSGTASVVCLLNNFYPREAKVQWKVDNALQSGNSQESVTEQDSKDSTYSLSSTLTLSKADYEKHKVYACEVTHQGLSSPVTKSFNRGECGGGGSGGGGSGGGGSQVQLQQPGAELVKPGASVKMSCKASGYTFTSYNMHWVKQTPGRGLEWIGAIYPGNGDTSYNQKFKGKATLTADKSSSTAYMQLSSLTSEDSAVYYCARSTYYGGDWYFNVWGAGTTVTVSAGGGGSGGGGSGGGGSGGGGSQIVLSQSPAILSASPGEKVTMTCRASSSVSYIHWFQQKPGSSPKPWIYATSNLASGVPVRFSGSGSGTSYSLTISRVEAEDAATYYCQQWTSNPPTFGGGTKLEIK
chain: not shown
With B1, the dissociation constant (Kd) (as a rule, the concentration at which binding is half-saturated) with recombinant human CD20 [1] is 3.67 nM.

B2: T2.08 (anti-hu CD20/hu IL-12, hu IgG1 (2 + 1, LC scFv)) (bispecific antibody)
heavy: not shown
light: B1 light
chain: not shown
As to B2, in the assay with recombinant human CD20 [1], the Kd came to 2.08 nM.

B3: T2.01 (anti-hu CD20/hu IL-12, hu IgG1) (bispecific antibody)
heavy: not shown
light: QIVLSQSPAILSASPGEKVTMTCRASSSVSYIHWFQQKPGSSPKPWIYATSNLASGVPVRFSGSGSGTSYSLTISRVEAEDAATYYCQQWTSNPPTFGGGTKLEIKRTVAAPSVFIFPPSDEQLKSGTASVVCLLNNFYPREAKVQWKVDNALQSGNSQESVTEQDSKDSTYSLSSTLTLSKADYEKHKVYACEVTHQGLSSPVTKSFNRGEC
chain: not shown
For the molecule B3, the Kd in the assay with recombinant human CD20 [2] was determined as 5.84 nM. Moreover, the EC50 – broadly, the concentration that produces a half-maximal response – in assay [3] was 16.2 nM.

B4: T2.07 (anti-hu CD20/hu IL-12 mut2, hu IgG1 (2 + 1, HC scFv)) (bispecific antibody)
heavy: not shown
light: B3 light
chain: not shown
As to B4, the equilibrium dissociation constant (Kd) with recombinant human CD20 [4] came to 2.84 nM.

B5: T2.02 (anti-hu CD20/hu IL-12 mut1, hu IgG1) (bispecific antibody)
heavy: not shown
light: B3 light
chain: not shown
As to B5, the dissociation constant Kd in the assay with recombinant human CD20 [2] came to 7.2 nM. In assay [3], this molecule yielded an EC50 of 17.6 nM.

B6: T2.11 (anti-hu CD20/anti-hu CD20-hu IL-12 mut2, hu IgG1 (2 + 1)) (antibody)
heavy 1: not shown
heavy 2: not shown
light: B3 light
As to B6, the equilibrium dissociation constant (Kd) with recombinant human CD20 [1] was found to be 1390 nM.

B7: T2.10 (anti-hu CD20/anti-hu CD20-hu IL-12, hu IgG1 (2 + 1)) (antibody)
heavy 1: not shown
heavy 2: not shown
light: B3 light
On to B7, for which the equilibrium dissociation constant (Kd) in the assay with recombinant human CD20 [1] stood at 16.6 nM.

B8: T2.06 (anti-hu CD20/hu IL-12, hu IgG1 (2 + 1, HC scFv)) (bispecific antibody)
heavy: not shown
light: B3 light
chain: not shown
For the molecule B8, the Kd with recombinant human CD20 [4] came out at 11.5 nM.

B9: Rituximab (anti-hu CD20 monoclonal antibody) (antibody, V domains shown)
VH: QVQLQQPGAELVKPGASVKMSCKASGYTFTSYNMHWVKQTPGRGLEWIGAIYPGNGDTSYNQKFKGKATLTADKSSSTAYMQLSSLTSEDSAVYYCARSTYYGGDWYFNVWGAGTTVTVSA
VL: QIVLSQSPAILSASPGEKVTMTCRASSSVSYIHWFQQKPGSSPKPWIYATSNLASGVPVRFSGSGSGTSYSLTISRVEAEDAATYYCQQWTSNPPTFGGGTKLEIKR
Turning to B9, the midpoint of the response in assay [5], the EC50, lay at 25.1 nM.

B10: T2.04 (anti-hu CD20/hu IL-12, hu IgG1 (2 + 1)) (bispecific antibody)
heavy: not shown
light: QIVLSQSPAILSASPGEKVTMTCRASSSVSYIHWFQQKPGSSPKPWIYATSNLASGVPVRFSGSGSGTSYSLTISRVEAEDAATYYCQQWTSNPPTFGGGTKLEIKGGGGSGGGGSGGGGSQIVLSQSPAILSASPGEKVTMTCRASSSVSYIHWFQQKPGSSPKPWIYATSNLASGVPVRFSGSGSGTSYSLTISRVEAEDAATYYCQQWTSNPPTFGGGTKLEIKRTVAAPSVFIFPPSDEQLKSGTASVVCLLNNFYPREAKVQWKVDNALQSGNSQESVTEQDSKDSTYSLSSTLTLSKADYEKHKVYACEVTHQGLSSPVTKSFNRGEC
chain: not shown
In the case of B10, the dissociation constant Kd in the assay with recombinant human CD20 [4] worked out at 7.58 nM.

B11: T2.05 (anti-hu CD20/hu IL-12 mut2, hu IgG1 (2 + 1)) (bispecific antibody)
heavy: not shown
light: B10 light
chain: not shown
Regarding B11, the Kd with recombinant human CD20 [4] is 2.88 nM.
